We go through one substance from PMC8595651.

The target of the experiment is Fibrillar type I collagen (PureCol atelo-type I collagen, Advanced Biomatrix Cat# 5005) (UniProt P02453). As to the kind of experiment: ELISA. On the technique in general: An ELISA detects its analyte on a solid surface through an enzyme-linked reagent.
UniProt P02453, sequence (P02453 162-1217, chain 1 of 2): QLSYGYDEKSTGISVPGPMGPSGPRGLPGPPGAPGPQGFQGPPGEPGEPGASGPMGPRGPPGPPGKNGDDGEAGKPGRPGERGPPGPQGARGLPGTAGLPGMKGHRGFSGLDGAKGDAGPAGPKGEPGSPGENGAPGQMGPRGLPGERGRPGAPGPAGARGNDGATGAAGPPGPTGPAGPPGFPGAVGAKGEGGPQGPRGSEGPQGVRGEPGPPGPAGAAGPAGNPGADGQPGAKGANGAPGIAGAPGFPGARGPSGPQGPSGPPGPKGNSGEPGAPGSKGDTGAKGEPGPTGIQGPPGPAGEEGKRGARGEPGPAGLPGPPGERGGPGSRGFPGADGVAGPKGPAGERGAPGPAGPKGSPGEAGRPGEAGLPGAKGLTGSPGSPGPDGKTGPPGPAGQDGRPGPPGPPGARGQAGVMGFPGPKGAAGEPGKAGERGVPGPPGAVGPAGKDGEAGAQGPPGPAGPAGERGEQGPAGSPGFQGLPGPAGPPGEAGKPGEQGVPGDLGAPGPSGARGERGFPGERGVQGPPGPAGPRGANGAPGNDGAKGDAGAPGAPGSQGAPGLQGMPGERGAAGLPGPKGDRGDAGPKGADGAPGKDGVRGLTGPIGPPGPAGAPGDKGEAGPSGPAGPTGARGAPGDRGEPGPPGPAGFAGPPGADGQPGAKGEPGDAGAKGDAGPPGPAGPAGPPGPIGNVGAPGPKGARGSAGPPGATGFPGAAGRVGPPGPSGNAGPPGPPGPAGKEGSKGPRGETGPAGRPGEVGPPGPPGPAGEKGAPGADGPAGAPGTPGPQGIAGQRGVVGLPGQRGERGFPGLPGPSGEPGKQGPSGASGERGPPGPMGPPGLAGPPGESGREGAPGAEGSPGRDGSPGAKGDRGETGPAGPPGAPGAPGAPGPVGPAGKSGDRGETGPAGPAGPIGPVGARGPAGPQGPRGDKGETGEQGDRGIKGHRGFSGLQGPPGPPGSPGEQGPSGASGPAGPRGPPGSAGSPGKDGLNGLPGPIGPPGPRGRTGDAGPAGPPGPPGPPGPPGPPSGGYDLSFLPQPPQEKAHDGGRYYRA
UniProt P02453, sequence (P02465 80-1117, chain 2 of 2, further chain): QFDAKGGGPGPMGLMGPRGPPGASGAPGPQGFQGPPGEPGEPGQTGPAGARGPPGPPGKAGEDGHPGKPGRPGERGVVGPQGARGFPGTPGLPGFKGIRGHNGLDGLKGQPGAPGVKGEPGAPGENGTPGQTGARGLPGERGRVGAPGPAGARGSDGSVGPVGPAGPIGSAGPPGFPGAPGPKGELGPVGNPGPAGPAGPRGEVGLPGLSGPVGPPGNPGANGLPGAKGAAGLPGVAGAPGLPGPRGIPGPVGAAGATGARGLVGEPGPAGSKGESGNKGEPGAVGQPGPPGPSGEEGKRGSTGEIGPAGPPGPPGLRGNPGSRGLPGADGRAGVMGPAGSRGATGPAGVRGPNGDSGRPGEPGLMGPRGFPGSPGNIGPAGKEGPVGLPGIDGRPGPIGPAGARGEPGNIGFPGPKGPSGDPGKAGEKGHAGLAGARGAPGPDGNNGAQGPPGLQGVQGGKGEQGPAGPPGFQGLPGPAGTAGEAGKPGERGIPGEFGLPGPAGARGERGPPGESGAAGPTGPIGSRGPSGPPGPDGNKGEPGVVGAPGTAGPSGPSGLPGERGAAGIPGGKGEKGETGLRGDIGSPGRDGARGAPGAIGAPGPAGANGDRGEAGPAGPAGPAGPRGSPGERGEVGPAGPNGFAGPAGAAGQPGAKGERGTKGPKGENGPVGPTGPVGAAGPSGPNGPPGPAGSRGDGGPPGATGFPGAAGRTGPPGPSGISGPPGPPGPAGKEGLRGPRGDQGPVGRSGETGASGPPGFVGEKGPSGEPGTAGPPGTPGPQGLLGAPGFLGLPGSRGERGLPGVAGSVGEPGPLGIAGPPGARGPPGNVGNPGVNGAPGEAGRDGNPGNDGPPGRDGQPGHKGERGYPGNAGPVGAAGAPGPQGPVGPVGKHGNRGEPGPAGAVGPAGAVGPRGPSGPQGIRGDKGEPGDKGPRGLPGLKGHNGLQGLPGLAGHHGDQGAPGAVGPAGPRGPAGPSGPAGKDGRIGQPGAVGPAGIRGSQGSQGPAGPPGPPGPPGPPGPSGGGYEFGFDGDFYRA

Turning to “WISP1ΔCT (form of WISP1 lacking a CT-domain), overexpressed in 4T1 cells (conditioned medium) (domain or fragment)”, the binding relative to that of WISP1 at equal concentrations was 75%.
